What all share (test): SPR
(In general: SPR reads the build-up and loss of mass on a sensor chip optically.)

Assay [1] has as its target human IL-15+IL-15Ralpha complex (human).
Assay [2] shares this target. The source holds these as a separate data set.
For assay [3] the target is unchanged. The source holds these as a separate data set.
The target of assay [4] is T1, cynomolgus IL-15+IL-15Ralpha complex (Macaca fascicularis).
T1 chain 1: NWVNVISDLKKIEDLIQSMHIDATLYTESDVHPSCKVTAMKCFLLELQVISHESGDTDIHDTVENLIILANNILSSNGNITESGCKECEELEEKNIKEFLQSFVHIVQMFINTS
T1 chain 2: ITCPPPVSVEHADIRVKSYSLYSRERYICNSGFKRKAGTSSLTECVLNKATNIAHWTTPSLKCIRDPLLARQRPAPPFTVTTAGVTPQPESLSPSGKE

Assay [5] concerns the target human IL-15+IL-15Ralpha complex (human). This is another data set of the same source.

Like-named read-outs stand apart in the source and are kept apart here.

B1: CALY-002 (antibody, V domains shown)
VH: EVQLVESGGGLVQPGGSLRLSCAASEFTFSNYAMSWVRQAPGKGLEWVATISRGGDYTYYPDSVKGRFTISRDNSKNTLYLQMNSLRAEDTAVYYCARRVSMITGGWAMDYWGQGTLVTVSS
VL: DVVMTQSPLSLPVTLGQPASISCRSSQSIVDITGNTYLEWYQQRPGQSPRLLIYKVFNRFSGVPDRFSGSGSGTDFTLKISRVEAEDVGVYYCFQDSFVPYTFGQGTKLEIK
Take B1: the Kd in assay [1] was 0.337 nM; in assay [2] it was 0.239 nM; in assay [3], 0.201 nM; in assay [4] it was 0.148 nM.

B2: R1A3 (antibody, V domains shown)
VH: EVQLVQSGAEVKKPGESLKISCKVSGYFFTTYWIGWVRQMPGKGLEYMGIIYPGDSDTRYSPSFQGQVTISADKSISTAYLQWSSLKASDTAMYYCARGGHWNAFDFWGQGTLVTVSS
VL: EIVLTQSPGTLSLSPGERATLSCRASQSVSSSYLAWYQQKPGQAPRLLIYGASRRATGIPDRFSGSGSGTDFTLTISRLEPEDFAVYYCQQFDASQTFGQGTKLEIS
B2: binding in assay [5] was characterised by a dissociation constant (Kd) of 0.353 nM.

For orientation: Kd means the free concentration of one partner at which half of the binding sites on the other are occupied at equilibrium, for simple one-to-one binding. High values mean a looser complex, low ones a tighter complex.
